Results: the nanobody polyreactivity screen of Harvey et al. (2022)

Experiment: yeast display, Sf9 membrane polyspecificity reagent, FACS + sequencing; frameworks hold sequencing errors
In short: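 Polyreactivity labels are assigned by the sorting gate from which each nanobody was recovered. The gates were low and high (top ~1%), set on anti-HA fluorescence for expression and streptavidin fluorescence for reagent binding. Before sorting, galactose-induced (36–48 hours) yeast display cells were stained for 1 hour at 4 °C with 10% biotinylated, detergent-solubilized Sf9 membrane reagent.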

| Sequence | polyreactivity (PSR sort gate) |
| --- | --- |
| QVQLVESGAGLVQAGGILRLSCAASGRIFQYNAMGWYRQAPGKEREWVAAIRRGGGSTYYADSVKGRFTISRDNAKNTVYLQMNSLKPEDTAVYYCAARRKRVSFYPEYDYWGQGTQVTVSS | low polyreactivity |
| QVHLVESGGGLVQAGGSLGLSCAASGNIFSSNAMGWYTQAPGKERELVDAITRSGGSTYYADSVKGRFTISRDNAKKTVYLQLNSQKPEDTAVYYGAARHYPRNSWGYDYWGQGTQVTVSS | high polyreactivity |
| QVQLVESGGGLVQAGGSLRLSCAASGRIFYYYAMGRYRQAPGKERELVAAISWSGGSTYYADSVKGRFTISRDNAKNTVYLQMNSLKPEDTAVYYCAAESRKYREYYYWGQGTQVTVSS | high polyreactivity |
| QVQLVESGGALVQAGGSLRLSCAASGSTFDANVMGWYRQAPGKERELVAAISRDTNTYYADSVKGRFTISRDNAKNTVYLQMNSLKPEDTAVYYYWGQGTQVTVSS | low polyreactivity |
| QVQLVESGGGLVQAGGSLRLSCAASGRILAGYAMGWYRQAPGKERELVAVISVGTGSTYYADSVKGRFTISRDNAKNTVYLQMNSLKPEDTAVYYCAADPGPYKELEYGYWGQGTQVTVSS | low polyreactivity |
| QVQLVESGGGLVQAGGSLRLSCAASGSIFPHYAMGWYRQAHGKERELVAAMSYSGGRTYYADSVKGRFTISRDNAKNTVYLQMNSLKPEDTAVYYCAKPERVLYHGDYWGQGTQVTVSS | low polyreactivity |
| QVQLVESGGGLVQAGGSLRLSCASSGSTFPEYAMGWYRQAPGKERELVAVISFGDGNTYYADSVKGRFTISRDNAKNTVYLQMNSLKPEDTAVYYCNAADDSVDQSVRTLRQYEYWGQGTQVTVSS | low polyreactivity |
| QVQLVESGGGLVQAGGSLRLSCAASGRIFKVYAMGWYRQAPGKERDLVAVISRGGSTYYADSVKGRFTISRDNAKNTVYLQMKSLKPEDTAVYYCAARLTYTGGQGAYDYWGQGTQVTVSS | high polyreactivity |
| QVQLVESGGGLVQAGGSLRLSCAASGIIFTSNTMGWYRPAPGKEREFVASINWNGSSTYADSVKGRFTISRDNAKNTVYLQMYSLKPDDTAVYYCNADSNRNSVQFSLYDYWGQGTQVTVSS | low polyreactivity |
| QVQLVESGGGLVQAGGSLRLSCAASGLIFSYYAMGWYIQAPGKERVLVAAISGVGSTNYADSVKGRFTISRDNEKNTVYLQMNSLKPEDTAVYYCAARFVLRRDYGYWGQGTQVTVSS | high polyreactivity |
| QDQLVESGGGLDQAGGSLRLSCAASGSTFQLYAMGWYRQAPGKERELVAAISGIGDSTYYADSVKGRFTISRDNAKNTVYLQMNSLKPEDTAVYYCDREFSDGLSGKFDYWGQGTQVTVSS | low polyreactivity |
| QVQLVDSGGGLVQAGGSLRLSCAASGITFRRYAMGWYRQAPGKERELVASITRNGGITYYADSVKGRFTISRDNAKNTVYLQMNSLKPEDTAVYYCNAVFYYPYPADRRDYWGQGTQVTVSS | high polyreactivity |
| QVQLVESGGGLVQAGGSLRLSCAASGRTFTAYAMGWYRQAPGKERELVAAITVSTSSTFYADSVKGRFTISRDNAKNTVYLQMNSLKPEDTAVYYCNKETLYPLDYWGEGTQVTVSS | low polyreactivity |
| QVQLVESGGGLVQAGGSLRLSCAASGLTFIEYAMGWYRQAPGKERELVAAISSGGRTYYADSVKGRFTISRDNAKNTVYLQMNSLKPEDTAVYYCNARGYRRWYNYWGQGTQVTVSS | high polyreactivity |
| QVQLVESGGGLVQAGGSLRLSCAASGNTVFKNAMVWYRQAPGKERELVAAISKRGGSTYYADSVKGRFTISRDNAKNTVYIQMNSLIPEDTAVYYCAADTFGVYASTYDYWGQGTQVTVSS | high polyreactivity |
| QVQLVESGGGLVQAGGSLRLSCAASGSIGYYAMGWYRQAPGKERELVAVISRSGTGTSYADSVKGRFTISRDNAKNTVYSQMTSLKPEDTAVYYCNAETYTYRYENDYWGQGTQVTVSS | high polyreactivity |

| Sequence | polyreactivity (PSR sort gate) |
| --- | --- |
| QVQHVESGGGLVQAGGSLRLSCAASGRTFTHYAMGWYRQAPGKERELVAVITTGGSTYYADSVKGRFTISRDNAKNTVYLQMNSLKPEDTAVYYCAATALSGLGYWGQGTQVTVSS | low polyreactivity |
| QVQLVESGVGLVQAGGSLRLSCAHSGRIFFKNTMGWYRQAPGKERELVAAITSSGSSTYYADSVKGRFTISRDNAMNTVYLQMNSLKPEDTAVYYCNADYGFSFYWYDFWGHGTQVTVSS | low polyreactivity |
| QVQLVESGGGLVQAGGSLRLSCAASGYIFWINAMGWYRHAPGKERDLVAAIRYSTGRTYYADSVKGRFTISRDNAKNTVYLQMNSLKPEDTAVYYCNARSWYIRGSQEYYYWGQGTQVTVSS | high polyreactivity |
| QVQLVESGGGLVQAGGSLSLTCAASVLTLTGYPMGWYRPAPGKERELVAAISSRGGSTYYADSVKGRFTISRDNAKNTVYLQMNSLKREDTAFYYCDARASSGARGLDYWGQGTQVTVSS | high polyreactivity |
| QVQLVESGGGLVQAGGSLRLSCAASGNTFVYNDMGWYRQAPGKERELVADIRYSGSTYYADSVKGRFTISRDNAKNTVYLQMNSLKPEDTAVYYCAKAYYVLSWMGYWGQGTQVTVSS | low polyreactivity |
| QVQLVESGGGLVQAGGSLRLSCAASGSIFGWNTMGWYRQAPGKERELVAAITWTGGRTYYADSVKGRFTISRDNAKNTVYLQMNSLKPEDTAVYYCNALRVIRGGIKGDYWGQGTQVTVSS | high polyreactivity |
| QVQLVESGGGLVQAGGSLRLSCAASRRIFSRYAMGWYRQAPGKERELVAAITGRGGSTYYADSVKGRFTISRDNAKNTVYLQMNSLKPEDTAVYYCAADVPPRRNFVKYYYWGQGTQVTVSS | high polyreactivity |
| QVQLVESGGGIVQEAGSLSLSCAASRLTFTTYNMGWSRPAPGKERELVAALSSRGGSTYYADSVKGRFTISRDNAKNTVYLEKNSLKPEDTAVDYCNAPRPHRMDWGQGTQVTVSS | high polyreactivity |
| QVQLVESGGGLVQAGGSLRLSCAASGFIFIYNAMGWYRQAPGKERELVASITSGGGSTYYADSVKGRFTISRDNAKNTVYLQMNSLKPEDTAVYYCAKQDAVQGAEASGEYDYWGQGTQVTVSS | low polyreactivity |
| QVQLVESGGGLVQAGGSLRLSCAASGRTFFNYAMGWYRQAPGKERELVAAISFSDGSTYYADSVKGRFTISRDNAKNTVYLQMNSLKPEDTADYYCAAQPGRRAGRSGFDYWGQGTQVTVSS | high polyreactivity |
| QVQLVESGGGLVQAGGSLSLICAASGRTFGPNTMGWYRQAPGKERELVAAITGSGGSTYYADSVKGRFTISRDNAKNTVYLQMNSLKPEDTAVYYCAKSVRYPASDYWGQGTQVTVSS | low polyreactivity |
| QVQLVESGGGLVQAGGSLRLSCAPSGITLVRYAMGWYRQAPGKERELVAAISSSGGSTYYADSVKGRFTISRDNAMNPVYLQMNSLKPEDTAVYYCAKRLYYGDPPTYDYWGQGTQVTVSS | high polyreactivity |
| QVQLVESGGGLVQAGGSHRLRCADSGFTFYSNAMGCYRQAPGKERELVASITWSGGNTYYADSVKGRFTISRDKAKTTVYLQMNSLKPEDTAVYYCAAGYSRDVQGYARAYRFYYWGQGTQVTVSS | high polyreactivity |
| QVQLVESGGGLVQAGGSLRLSCAASGSIFVTYALGWYRQAPGKERELVAAINSGGRTNYADSVKGRFTISRDNAKNTVYLQMNSLKPEDTAVYYCAATGRYFYPYYRYDYWGQGTQVTVSS | low polyreactivity |
| QVQLVESGGGLVQAGVSLRLSCAASGSIFAYYAMGWYRQAPGKERELVATIRSSGGRTYYADSVKGRFTISRDNAKNNVYLHLNSLKPEDTAVYYCAAERSITYDYWGQGTQVTVSS | high polyreactivity |
| QVQLVESGGGLVQAGGSLRLSCAASGIIFIVNAMGWYRQAPGKERELVAAISNGGSTNYADSVKGRFTISRDNAKNTVYLQMNSLKPEDTAVYYCAADDEGWWVTNYDYWGQGTQVTVSS | low polyreactivity |
